Measurements: patent publication US20140072613A1, “Compositions and Methods for Treating Cutaneous Scarring” (priority 2012, published 2014)

Assays:
Assay in all cases: biochemical
Type in all cases: biochemical
266 human kinases [1] = target: 266 human kinases (Homo sapiens, UniProt O96017); conditions: CHK2(h); 100 μM
Summary of the method: (§1)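 Kinase phosphorylates cationic substrate with radiolabelled ATP phosphate; substrate retained on anionic filter membrane; scintillation count; % of 100% activity control.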

266 human kinases [2] = target: 266 human kinases (Homo sapiens, UniProt Q02750); conditions: MEK1(h); 100 μM
Summary of the method: as §1

266 human kinases [3] = target: T1, 266 human kinases (Homo sapiens, UniProt Q8IW41); conditions: PRAK(h); 100 μM
T1 sequence (Q8IW41 1-473): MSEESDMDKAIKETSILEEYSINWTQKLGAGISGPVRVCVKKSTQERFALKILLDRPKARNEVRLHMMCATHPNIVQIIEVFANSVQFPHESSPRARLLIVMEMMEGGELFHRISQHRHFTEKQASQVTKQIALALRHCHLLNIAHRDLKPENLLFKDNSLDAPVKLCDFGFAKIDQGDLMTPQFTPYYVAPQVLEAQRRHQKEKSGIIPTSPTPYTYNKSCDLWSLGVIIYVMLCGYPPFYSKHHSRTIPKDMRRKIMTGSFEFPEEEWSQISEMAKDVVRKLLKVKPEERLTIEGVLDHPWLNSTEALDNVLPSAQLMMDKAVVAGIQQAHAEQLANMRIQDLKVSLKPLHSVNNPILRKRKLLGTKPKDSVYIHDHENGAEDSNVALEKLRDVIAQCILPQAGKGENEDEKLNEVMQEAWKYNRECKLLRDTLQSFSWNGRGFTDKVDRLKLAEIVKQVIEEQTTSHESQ
Summary of the method: as §1

266 human kinases [4] = target: T2, 266 human kinases (Homo sapiens, UniProt Q13188); conditions: MST2(h); 100 μM
T2 sequence (Q13188 1-491): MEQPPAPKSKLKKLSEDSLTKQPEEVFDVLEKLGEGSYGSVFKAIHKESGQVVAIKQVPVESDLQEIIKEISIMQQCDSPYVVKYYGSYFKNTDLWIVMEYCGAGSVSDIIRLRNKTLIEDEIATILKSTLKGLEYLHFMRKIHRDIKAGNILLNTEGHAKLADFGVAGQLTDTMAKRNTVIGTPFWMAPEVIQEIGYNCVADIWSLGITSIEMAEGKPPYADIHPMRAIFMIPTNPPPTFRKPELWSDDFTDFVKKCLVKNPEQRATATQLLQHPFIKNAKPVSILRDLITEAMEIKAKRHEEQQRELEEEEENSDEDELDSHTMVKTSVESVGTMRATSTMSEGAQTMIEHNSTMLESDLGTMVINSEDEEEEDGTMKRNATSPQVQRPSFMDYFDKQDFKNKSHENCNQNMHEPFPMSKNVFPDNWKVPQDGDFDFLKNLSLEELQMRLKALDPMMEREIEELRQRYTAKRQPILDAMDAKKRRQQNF
Summary of the method: as §1

266 human kinases [5] = target: 266 human kinases (Homo sapiens, UniProt P45984); conditions: JNK2α2(h); 100 μM
Summary of the method: as §1

266 human kinases [6] = target: 266 human kinases (Homo sapiens, UniProt P00519, H396P); conditions: Abl(H8396P)(h); 100 μM
Summary of the method: as §1

266 human kinases [7] = target: T3, 266 human kinases (Homo sapiens, UniProt P29320); conditions: EphA3(h); 100 μM
T3 sequence (P29320 21-983): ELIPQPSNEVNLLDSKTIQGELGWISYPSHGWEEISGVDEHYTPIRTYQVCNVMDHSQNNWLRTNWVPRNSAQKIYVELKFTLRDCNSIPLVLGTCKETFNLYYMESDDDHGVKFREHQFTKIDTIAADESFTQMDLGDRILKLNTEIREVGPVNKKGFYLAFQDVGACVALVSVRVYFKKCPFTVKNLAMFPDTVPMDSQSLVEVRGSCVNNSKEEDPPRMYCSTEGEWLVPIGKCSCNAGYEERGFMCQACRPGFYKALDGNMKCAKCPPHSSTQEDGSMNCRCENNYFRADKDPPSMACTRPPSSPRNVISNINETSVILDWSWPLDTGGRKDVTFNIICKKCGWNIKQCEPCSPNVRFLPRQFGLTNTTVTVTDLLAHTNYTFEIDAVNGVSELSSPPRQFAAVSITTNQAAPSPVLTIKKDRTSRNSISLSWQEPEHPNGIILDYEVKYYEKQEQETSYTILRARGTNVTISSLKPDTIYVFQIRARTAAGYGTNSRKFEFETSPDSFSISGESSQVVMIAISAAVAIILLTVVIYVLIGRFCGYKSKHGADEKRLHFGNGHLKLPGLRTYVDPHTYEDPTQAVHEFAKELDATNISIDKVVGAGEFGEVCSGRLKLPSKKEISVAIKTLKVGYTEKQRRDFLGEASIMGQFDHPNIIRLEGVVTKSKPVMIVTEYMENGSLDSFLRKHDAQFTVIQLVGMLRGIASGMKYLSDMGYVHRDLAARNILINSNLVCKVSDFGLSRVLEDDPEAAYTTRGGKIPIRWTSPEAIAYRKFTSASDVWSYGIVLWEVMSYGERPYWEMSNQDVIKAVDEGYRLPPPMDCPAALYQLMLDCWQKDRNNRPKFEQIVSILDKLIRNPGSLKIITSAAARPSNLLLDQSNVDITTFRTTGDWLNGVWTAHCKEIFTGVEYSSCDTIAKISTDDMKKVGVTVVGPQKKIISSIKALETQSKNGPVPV
Summary of the method: as §1

266 human kinases [8] = target: 266 human kinases (Homo sapiens, UniProt P16234, D842V); conditions: PDGFRα(D842V)(h); 100 μM
Summary of the method: as §1

266 human kinases [9] = target: 266 human kinases (Homo sapiens, UniProt Q13464); conditions: ROCK-I(h); 100 μM
266 human kinases (Homo sapiens, UniProt Q13464), sequence (Q13464 whole entry): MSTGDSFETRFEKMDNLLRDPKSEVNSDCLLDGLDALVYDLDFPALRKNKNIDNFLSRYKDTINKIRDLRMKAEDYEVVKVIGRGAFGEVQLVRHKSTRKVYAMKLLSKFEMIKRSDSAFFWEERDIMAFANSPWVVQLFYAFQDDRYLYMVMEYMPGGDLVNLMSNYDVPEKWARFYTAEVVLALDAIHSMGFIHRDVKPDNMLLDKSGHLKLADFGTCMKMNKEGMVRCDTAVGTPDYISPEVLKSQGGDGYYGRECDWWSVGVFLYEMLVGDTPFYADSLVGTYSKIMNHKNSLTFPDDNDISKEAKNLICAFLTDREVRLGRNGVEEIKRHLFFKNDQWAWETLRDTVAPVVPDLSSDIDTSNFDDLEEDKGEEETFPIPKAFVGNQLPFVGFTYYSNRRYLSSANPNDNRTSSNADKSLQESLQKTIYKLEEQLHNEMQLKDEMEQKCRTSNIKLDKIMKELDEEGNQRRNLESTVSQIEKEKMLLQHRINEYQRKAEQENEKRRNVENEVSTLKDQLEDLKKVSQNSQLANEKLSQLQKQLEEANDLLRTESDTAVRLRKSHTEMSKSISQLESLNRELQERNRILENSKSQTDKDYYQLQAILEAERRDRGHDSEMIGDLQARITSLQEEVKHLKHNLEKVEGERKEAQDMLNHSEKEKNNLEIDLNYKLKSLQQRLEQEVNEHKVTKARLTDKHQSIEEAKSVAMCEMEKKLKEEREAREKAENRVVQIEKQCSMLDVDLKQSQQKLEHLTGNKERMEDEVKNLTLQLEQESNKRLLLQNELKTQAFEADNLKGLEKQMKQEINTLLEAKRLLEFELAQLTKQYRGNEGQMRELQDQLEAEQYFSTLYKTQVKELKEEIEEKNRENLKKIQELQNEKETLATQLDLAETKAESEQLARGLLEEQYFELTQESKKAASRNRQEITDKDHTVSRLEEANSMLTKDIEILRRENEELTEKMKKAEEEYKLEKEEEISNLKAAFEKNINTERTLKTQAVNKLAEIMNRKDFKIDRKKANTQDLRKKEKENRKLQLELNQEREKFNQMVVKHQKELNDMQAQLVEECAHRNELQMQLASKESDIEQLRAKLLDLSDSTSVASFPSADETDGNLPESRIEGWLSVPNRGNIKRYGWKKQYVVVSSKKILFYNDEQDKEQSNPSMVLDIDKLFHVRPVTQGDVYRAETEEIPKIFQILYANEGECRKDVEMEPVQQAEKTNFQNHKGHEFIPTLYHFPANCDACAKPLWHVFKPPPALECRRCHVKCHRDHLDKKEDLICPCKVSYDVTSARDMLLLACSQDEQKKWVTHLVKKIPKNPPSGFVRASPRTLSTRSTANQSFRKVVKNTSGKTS
Summary of the method: as §1

266 human kinases [10] = target: 266 human kinases (Homo sapiens, UniProt P53667); conditions: LIMK1(h); 100 μM
266 human kinases (Homo sapiens, UniProt P53667), sequence (P53667 whole entry): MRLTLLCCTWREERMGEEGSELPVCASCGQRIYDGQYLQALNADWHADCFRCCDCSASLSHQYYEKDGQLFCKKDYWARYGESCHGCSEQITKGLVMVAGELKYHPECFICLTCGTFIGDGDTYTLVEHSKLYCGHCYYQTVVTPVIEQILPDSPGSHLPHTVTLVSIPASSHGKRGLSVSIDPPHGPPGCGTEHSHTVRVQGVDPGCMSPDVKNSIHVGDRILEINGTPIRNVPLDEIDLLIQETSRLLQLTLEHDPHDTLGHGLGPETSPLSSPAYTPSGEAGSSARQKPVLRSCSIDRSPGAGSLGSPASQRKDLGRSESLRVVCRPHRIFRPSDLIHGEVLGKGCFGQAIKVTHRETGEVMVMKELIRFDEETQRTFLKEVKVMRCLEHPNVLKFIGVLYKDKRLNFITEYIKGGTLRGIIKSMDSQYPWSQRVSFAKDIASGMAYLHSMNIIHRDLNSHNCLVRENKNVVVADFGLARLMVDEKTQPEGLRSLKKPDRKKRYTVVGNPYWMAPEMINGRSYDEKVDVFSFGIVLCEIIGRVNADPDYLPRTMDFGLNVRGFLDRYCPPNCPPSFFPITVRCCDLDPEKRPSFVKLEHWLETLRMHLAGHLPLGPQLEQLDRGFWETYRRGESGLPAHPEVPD
Summary of the method: as §1

266 human kinases [11] = target: 266 human kinases (Homo sapiens, UniProt Q9Y5S2); conditions: MRCKβ(h); 100 μM
266 human kinases (Homo sapiens, UniProt Q9Y5S2), sequence (Q9Y5S2 whole entry): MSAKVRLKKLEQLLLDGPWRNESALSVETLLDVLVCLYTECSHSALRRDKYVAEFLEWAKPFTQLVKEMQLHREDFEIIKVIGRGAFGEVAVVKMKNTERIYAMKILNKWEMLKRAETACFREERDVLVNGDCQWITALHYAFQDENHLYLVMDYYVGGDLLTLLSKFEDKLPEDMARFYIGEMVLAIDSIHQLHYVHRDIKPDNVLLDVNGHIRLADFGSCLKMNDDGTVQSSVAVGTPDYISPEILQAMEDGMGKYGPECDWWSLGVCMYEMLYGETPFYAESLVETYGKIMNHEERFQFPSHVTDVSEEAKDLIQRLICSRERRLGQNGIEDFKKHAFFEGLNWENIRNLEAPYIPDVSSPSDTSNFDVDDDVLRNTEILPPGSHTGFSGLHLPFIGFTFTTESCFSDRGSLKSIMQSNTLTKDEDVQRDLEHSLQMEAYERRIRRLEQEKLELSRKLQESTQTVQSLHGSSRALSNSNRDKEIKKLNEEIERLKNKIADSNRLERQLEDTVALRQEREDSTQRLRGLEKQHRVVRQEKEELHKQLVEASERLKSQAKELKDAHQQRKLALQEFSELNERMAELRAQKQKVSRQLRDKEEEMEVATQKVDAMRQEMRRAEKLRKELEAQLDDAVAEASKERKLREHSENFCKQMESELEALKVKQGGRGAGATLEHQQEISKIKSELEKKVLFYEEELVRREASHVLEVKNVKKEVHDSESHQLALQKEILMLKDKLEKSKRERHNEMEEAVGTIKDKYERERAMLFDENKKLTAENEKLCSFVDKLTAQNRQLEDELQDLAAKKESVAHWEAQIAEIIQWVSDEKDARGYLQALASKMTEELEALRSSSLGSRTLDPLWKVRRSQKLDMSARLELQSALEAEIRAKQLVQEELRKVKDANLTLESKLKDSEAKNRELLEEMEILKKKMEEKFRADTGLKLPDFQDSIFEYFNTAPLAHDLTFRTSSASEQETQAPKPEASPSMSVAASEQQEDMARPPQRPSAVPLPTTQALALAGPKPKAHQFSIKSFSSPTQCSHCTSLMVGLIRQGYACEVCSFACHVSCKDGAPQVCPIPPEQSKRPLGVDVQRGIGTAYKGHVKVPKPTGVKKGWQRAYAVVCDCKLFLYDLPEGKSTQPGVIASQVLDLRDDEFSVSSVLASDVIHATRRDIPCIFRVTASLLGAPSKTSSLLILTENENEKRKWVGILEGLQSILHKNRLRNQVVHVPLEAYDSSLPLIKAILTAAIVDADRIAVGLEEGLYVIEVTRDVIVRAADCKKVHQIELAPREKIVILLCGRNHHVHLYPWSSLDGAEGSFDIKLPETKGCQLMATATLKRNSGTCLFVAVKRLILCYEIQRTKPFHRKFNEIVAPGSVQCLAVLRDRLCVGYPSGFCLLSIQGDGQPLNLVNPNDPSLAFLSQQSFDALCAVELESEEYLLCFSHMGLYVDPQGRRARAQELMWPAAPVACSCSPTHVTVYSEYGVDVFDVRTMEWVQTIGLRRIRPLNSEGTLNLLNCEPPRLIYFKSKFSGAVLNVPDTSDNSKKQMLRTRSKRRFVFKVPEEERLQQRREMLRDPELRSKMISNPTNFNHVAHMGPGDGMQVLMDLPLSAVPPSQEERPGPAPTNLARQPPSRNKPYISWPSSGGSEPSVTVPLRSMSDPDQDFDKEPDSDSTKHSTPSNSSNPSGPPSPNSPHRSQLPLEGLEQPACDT
Summary of the method: as §1

266 human kinases [12] = target: 266 human kinases (Homo sapiens, UniProt Q16832); conditions: DDR2(h); 100 μM
266 human kinases (Homo sapiens, UniProt Q16832), sequence (Q16832 22-855): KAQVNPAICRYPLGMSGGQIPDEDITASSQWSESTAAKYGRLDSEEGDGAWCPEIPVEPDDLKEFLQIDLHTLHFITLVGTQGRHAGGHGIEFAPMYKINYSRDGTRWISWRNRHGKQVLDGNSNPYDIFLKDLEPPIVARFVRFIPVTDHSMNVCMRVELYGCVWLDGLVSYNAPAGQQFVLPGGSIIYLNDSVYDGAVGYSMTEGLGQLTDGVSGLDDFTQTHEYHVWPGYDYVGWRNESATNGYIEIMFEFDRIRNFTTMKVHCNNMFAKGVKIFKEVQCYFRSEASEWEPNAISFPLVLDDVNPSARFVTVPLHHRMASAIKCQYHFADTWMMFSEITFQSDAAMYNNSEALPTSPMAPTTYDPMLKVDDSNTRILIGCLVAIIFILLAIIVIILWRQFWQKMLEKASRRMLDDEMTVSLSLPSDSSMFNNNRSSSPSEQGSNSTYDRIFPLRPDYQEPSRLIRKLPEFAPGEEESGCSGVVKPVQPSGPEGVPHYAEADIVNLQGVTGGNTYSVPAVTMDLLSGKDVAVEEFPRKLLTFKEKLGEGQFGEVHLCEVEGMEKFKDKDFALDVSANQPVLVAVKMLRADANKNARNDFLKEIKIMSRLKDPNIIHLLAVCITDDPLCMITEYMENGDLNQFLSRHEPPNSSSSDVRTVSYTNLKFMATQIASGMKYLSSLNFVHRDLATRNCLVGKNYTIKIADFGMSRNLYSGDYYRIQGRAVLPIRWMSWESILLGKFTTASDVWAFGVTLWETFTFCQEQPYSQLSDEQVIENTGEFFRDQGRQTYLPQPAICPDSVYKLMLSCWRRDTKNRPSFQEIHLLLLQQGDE
Summary of the method: as §1

266 human kinases [13] = target: 266 human kinases (Homo sapiens, UniProt P16234, V561D); conditions: PDGFRα(V561D)(h); 100 μM
Summary of the method: as §1

266 human kinases (Homo sapiens, UniProt O96017), sequence (O96017 whole entry): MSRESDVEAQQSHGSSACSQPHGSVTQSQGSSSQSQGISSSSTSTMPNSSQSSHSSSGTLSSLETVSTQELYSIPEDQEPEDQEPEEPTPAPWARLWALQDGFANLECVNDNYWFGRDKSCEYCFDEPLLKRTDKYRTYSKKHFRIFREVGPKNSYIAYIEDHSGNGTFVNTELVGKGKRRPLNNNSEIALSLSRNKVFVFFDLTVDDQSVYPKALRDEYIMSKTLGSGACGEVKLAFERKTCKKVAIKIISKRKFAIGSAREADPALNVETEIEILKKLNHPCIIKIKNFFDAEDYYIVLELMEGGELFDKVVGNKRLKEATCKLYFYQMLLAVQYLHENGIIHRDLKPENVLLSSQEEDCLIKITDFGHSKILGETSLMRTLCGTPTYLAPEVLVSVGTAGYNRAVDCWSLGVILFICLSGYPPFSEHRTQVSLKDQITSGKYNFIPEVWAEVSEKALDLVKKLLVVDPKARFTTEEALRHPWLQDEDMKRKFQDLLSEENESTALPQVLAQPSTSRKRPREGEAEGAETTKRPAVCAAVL

HRRIKAWLKKIKALARQLGVAA (mammal) [MMI-0500]
% activity (266 human kinases [1]): 13% | % activity (266 human kinases [2]): 21% | % activity (266 human kinases [3]): 95% | % activity (266 human kinases [4]): 2% | % activity (266 human kinases [5]): 81% | % activity (266 human kinases [6]): 51% | % activity (266 human kinases [7]): 33% | % activity (266 human kinases [8]): 170% | % activity (266 human kinases [9]): 17% | % activity (266 human kinases [10]): 87% | % activity (266 human kinases [11]): −10% | % activity (266 human kinases [12]): 79% | % activity (266 human kinases [13]): 146%
